Each block holds one molecule with its values, some of them ahead of it.
Assays:
[1] = In vitro drug release from in situ photocrosslinked implants (ISPcI) in PBS
Description: (§1) For drug release studies selected ISPcI gel formulation were injected (approx. 0.2 g or 0.1 g) into desired amount of PBS (pH 7.3±0.2). Sink conditions were maintained for each drug type. ISPcI were formed by exposing them immediately to 365 nm using bench-top UV light (at 3.1±0.1 mW/cm^2, CAMAG, Muttenz, Switzerland) for varying periods of time in PBS. The implants were stored in an incubator (37° C. and 60 rpm) for the duration of the release study. At predetermined time intervals the entire PBS medium was removed and replaced with equal amount of fresh PBS. All the experiments were carried out in triplicates. The concentration of released drug molecule in the PBS samples was analyzed as described below.
BSA, OVA and bevacizumab (Avastin) were assayed using a Pierce™ Micro BCA protein assay kit (Thermo Scientific, Hampton, UK). To a microwell, 150 μL of BSA, OVA or BVZ standard or release sample was pipetted and 150 μL of working reagent was added. A plate shaker ensured thorough mixing. The 96-well plate was covered and incubated for 2 hours at 37° C. Once the plate was allowed to return to room temperature, a UV plate reader measured the absorbance at 562 nm. The average absorbance reading of the blank was subtracted from those of the standards/samples.

rat eye = assay: In vivo implant formation of ISPcI in rat eye following intravitreal injection; conditions: day 1, day 6 and day 18
Description: 2 μl of ISPcI gel formulation was injected by intravitreal route in the rat eye, following by UV light exposure for 2 min, fundus images were collected to locate the implant formation and image model dye release within the eye. Likewise PPcI were administered by subconjunctival route and any surface inflammation monitored by experienced ophthalmologist

[2] = In vitro drug release from preformed photocrosslinked implants (PPcI) in PBS; assay type: physicochemical; conditions: PPcI 30% w/w PLGA 75/25 / PEGDA 700, 5 runs, lamp intensity 100%, after 266 days
Description: as §1
Analysis of DEX and TA samples were carried out using reversed-phase HPLC with UV detection (Agilent 1260 Infinity Quaternary System) using an Agilent Zorbax Eclipse Plus 250 mm C18 column (250 mm length, 4.6 mm internal diameter and 5 μm particle size) and an Agilent Zorbax guard column held at 25° C. […] Analysis required a mobile phase of 60% water and 40% acetonitrile with UV absorbance at 270 nm (for DEX) and 236 nm (for TA) at a flow rate of 1 ml/min and 0.8 ml/min respectively. Analysis of FITC-Dextran 150 kDa release was conducted using a fluorescence spectrophotometer. […] Fluorescence excitation occurred at 480 nm with emission measured at 520 nm. […]

[3] = ELISA test for bioactivity of OVA released from ISPcI; conditions: released from ISPcI at 37±2° C., after 1 and 3 months
Description: (Agilent Technologies UK Ltd, Stockport, UK). […] A plate shaker ensured thorough mixing.
Due to slow degradation rate of the crosslinked ISPcIs, the drastic drop in local pH is further delayed (unlike PLGA only implants) which is especially important and an advantage in protecting the sensitive molecules such as peptides and proteins. […] For example, an ELISA test was conducted to determine the bioactivity of released OVA from the ISPcI, at 37±2° C., after 1 and 3 months, respectively.

Molecule: Bevacizumab [BVZ]
BVZ released ([1]; 30% PLGA ISPcI implants UV crosslinked for 30 sec): ~100%
BVZ released ([1]; 30% PLGA ISPcI implants UV crosslinked for 2.5 min): approximately 41%

release of fluorescein sodium from ISPcI implant in the eye (fundus images) (rat eye): slow and continuous release
Molecule: O=C1OC2(c3ccc(O)cc3Oc3cc(O)ccc32)c2ccccc21 [fluorescein sodium]

Molecule: Fluorescein isothiocyanate-dextran [FITC-Dextran 150 kDa]
% release [2]: ~27%

B1: ovalbumin (protein, UniProt P01012 2-386, looked up)
Ovalbumin: GSIGAASMEFCFDVFKELKVHHANENIFYCPIAIMSALAMVYLGAKDSTRTQINKVVRFDKLPGFGDSIEAQCGTSVNVHSSLRDILNQITKPNDVYSFSLASRLYAEERYPILPEYLQCVKELYRGGLEPINFQTAADQARELINSWVESQTNGIIRNVLQPSSVDSQTAMVLVNAIVFKGLWEKAFKDEDTQAMPFRVTEQESKPVQMMYQIGLFRVASMASEKMKILELPFASGTMSMLVLLPDEVSGLEQLESIINFEKLTEWTSSNVMEERKIKVYLPRMKMEEKYNLTSVLMAMGITDVFSSSANLSGISSAESLKISQAVHAAHAEINEAGREVVGSAEAGVDAASVSEEFRADHPFLFCIKHIATNAVLFFGRCVSP
notes: model protein molecule, Mw of 45 kDa
OVA remained active (bioactivity of released OVA by ELISA) [3]: ~97±2%
